For 1 sequence, Kd results are on record in the Immune Epitope Database (IEDB).

In assay [1] the target is HLA-B*08:03. The assay is described as follows: IEDB peptide-MHC binding, purified MHC/direct/fluorescence; filed as Kd, often an IC50 or EC50 that approximates it; ≥ and ≤ were set here for values at or beyond the usual limits of such assays. The note with it: source organism: Bacillus cereus 03BB108.
For assay [2], the target named is HLA-A*31:01. The description is as above. The conditions noted are these: source organism: Bacillus anthracis.
Assay [3] deals with HLA-A*02:01. Described as above. The conditions noted are these: source organism: Bacillus anthracis.
Assay [4] concerns the target HLA-A*26:01. Described as above. The note with it: source organism: Bacillus cereus 03BB108.
In assay [5] the target is HLA-B*48:01. Described as above. The note with it: source organism: Bacillus anthracis.
The target in assay [6] is HLA-A*69:01. The description is as above. The note with it: source organism: Bacillus anthracis.
Assay [7] addresses HLA-A*01:01. The description is as above. The note with it: source organism: Bacillus anthracis.
Assay [8] concerns the target HLA-B*15:01. Described as above. The note with it: source organism: Bacillus anthracis.
The target in assay [9] is HLA-B*15:17. The assay is described as above. The conditions noted are these: source organism: Bacillus anthracis.
The target in assay [10] is HLA-B*57:01. The description is as above. The conditions noted are these: source organism: Bacillus anthracis.
For assay [11], the target named is HLA-A*03:01. The description is as above. The conditions noted are these: source organism: Bacillus anthracis.
Assay [12] has as its target HLA-A*11:01. Described as above. The note with it: source organism: Bacillus anthracis.
Assay [13] deals with HLA-B*35:01. The assay is described as above. The note with it: source organism: Bacillus cereus 03BB108.
In assay [14] the target is HLA-B*58:01. Described as above. The note with it: source organism: Bacillus anthracis.
Assay [15] addresses HLA-A*68:02. The assay is described as above. The conditions noted are these: source organism: Bacillus anthracis.
In assay [16] the target is HLA-B*15:02. The description is as above. The conditions noted are these: source organism: Bacillus cereus 03BB108.
Assay [17] addresses HLA-B*27:05. Described as above. The note with it: source organism: Bacillus anthracis.
The target in assay [18] is HLA-B*07:02. Described as above. The note with it: source organism: Bacillus anthracis.
Assay [19] concerns the target HLA-B*46:01. Described as above. The note with it: source organism: Bacillus anthracis.
Assay [20] concerns the target HLA-B*15:09. As to the kind of experiment: IEDB peptide-MHC binding, purified MHC/competitive/fluorescence; filed as Kd, often an IC50 or EC50 that approximates it; ≥ and ≤ were set here for values at or beyond the usual limits of such assays. The conditions noted are these: source organism: Bacillus anthracis str. A0488.
Assay [21] addresses HLA-B*39:01. Described as above. The conditions noted are these: source organism: Bacillus anthracis str. A0488.
The target in assay [22] is HLA-A*26:02. Described as above. The note with it: source organism: Bacillus anthracis str. A0488.

In the case of SQMPPQKIM, the dissociation constant (Kd) (as a rule, the concentration at which binding is half-saturated) is at least 20 µM in assay [1]; at least 20 µM in assay [2]; at least 20 µM in assay [3]; at least 20 µM in assay [4]; 3.67 µM in [5]; at least 20 µM in assay [6]. Further, the Kd was at least 20 µM in assay [7]; 0.125 µM in assay [8]; at least 20 µM in assay [9]; at least 20 µM in [10]; at least 20 µM in [11]; at least 20 µM in assay [12]. Besides, the dissociation constant Kd in assay [13] is 0.661 µM; in assay [14], at least 20 µM; in assay [15], at least 20 µM; in [16] it was 0.022 µM; in [17], at least 20 µM; in assay [18], at least 20 µM. Also, the dissociation constant Kd in assay [19] is at least 20 µM; in assay [20], 0.283 µM; in assay [21] it was 3 µM; in assay [22] it was at least 20 µM.
